Consider 1 protein from PMC7894528, “Metal Ion Promiscuity and Structure of 2,3‐Dihydroxybenzoic Acid Decarboxylase of Aspergillus oryzae” (Chembiochem, 2020).

Substrate in the data set: O=C(O)c1cccc(O)c1O
The data set can be described thus: steady-state decarboxylation kinetics. The note with it: Mg2+-loaded enzyme; decarboxylation direction. It is filed as biochemical, Aspergillus oryzae.

B1: 2,3-DHBD_Ao (Aspergillus oryzae RIB40) (protein)
chain: MLGKIALEEAFALPRFEEKTRWWASLFSTDAETHVKEITDINKIRIEHADKHGVGYQILSYTAPGVQDIWDPVEAQALAVEINDYIAEQVRVNPDRFGAFATLSMHNPKEAADELRRCVEKYGFKGALVNDTQRAGPDGDDMIFYDNADWDIFWQTCTELDVPFYMHPRNPTGTIYEKLWADRKWLVGPPLSFAHGVSLHVLGMVTNGVFDRHPKLQIIMGHLGEHVPFDMWRINHWFEDRKKLLGLAETCKKTIRDYFAENIWITTSGHFSTTTLNFCMAEVGSDRILFSIDYPFETFSDACEWFDNAELNGTDRLKIGRENAKKLFKLDSYKDSSA
notes: recombinant, purified by size exclusion chromatography
A word on the Km: it is the substrate concentration at which the rate is half of its maximum. Consider B1, for which the Km is 208 µM and the kcat amounted to 15 s–1.
